Results from publication PMC5830446, “Spatial specificity of auxin responses coordinates wood formation”.

T1: ARF5 DNA-binding domain (ARF5-DBD) (UniProt P93024 120-274)
T1 sequence: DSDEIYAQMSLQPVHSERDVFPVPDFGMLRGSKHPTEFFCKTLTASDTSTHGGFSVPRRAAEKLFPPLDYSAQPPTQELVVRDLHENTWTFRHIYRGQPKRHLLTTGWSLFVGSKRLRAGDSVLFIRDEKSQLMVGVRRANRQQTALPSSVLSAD

B1: WOX4b (dsDNA)
DNA 1: AATCTGTCATTACCGACATAGT
DNA 2: ACTATGTCGGTAATGACAGATT
B2: WOX4a (dsDNA)
DNA 1: GCTCCATGCAGACATGAACATA
DNA 2: TATGTTCATGTCTGCATGGAGC

Molecular target: T1, ARF5 DNA-binding domain (ARF5-DBD)
Assay: EMSA; EMSA: 12.5 pmol ARF5-DBD (doubled in competition), 200 fmol Cy5 probe, 10 mM Tris-HCl pH 7.4, 75 mM NaCl, 50 ng/ul poly(dI-dC), 1 mM DTT, 20 min room temperature; 6% native gel, 0.5x TBE
Conditions: protein: recombinant; tags: 6xHis-MBP removed by TEV protease; label: 5' Cy5 (both strands); blunt

Binder | binding result
B1 | no binding
B2 | binds
